From the nanobody polyreactivity screen of Harvey et al. (2022)

test: yeast display, Sf9 membrane polyspecificity reagent, FACS + sequencing; frameworks hold sequencing errors
Procedure, shortened: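 Polyreactivity labels are assigned by the sorting gate from which each nanobody was recovered. The gates were low and high (top ~1%), set on anti-HA fluorescence for expression and streptavidin fluorescence for reagent binding. Before sorting, galactose-induced (36–48 hours) yeast display cells were stained for 1 hour at 4 °C with 10% biotinylated, detergent-solubilized Sf9 membrane reagent.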

Sequence	polyreactivity (PSR sort gate)
QVQLVESGGGLVQAGGSLRLSCAASGIIFYGYAMGWYRQAPGKERELVAGISSGGSTYYADSVKGRFTISRDNAKNTVYLQMNSLKPVDTAVSYCNADGGYSYESTDHYGYDYWGQGTQVTVSS	low polyreactivity
QVQLVESGGGLVQAGGRLRLSCAASGSIFNSYDMGWYRQAPGKERELVAAINSGGSTYYADSVKGRFTISRDNAKNTDYFQMNSLKPEDTAVYYCAARVVIRYPYTKGYYYWGQGTQVTVSS	high polyreactivity
QVQLVESGGGIVQAGGSLRLSCAASGRTFFHYAMGWYRQAPGKERELVAGISSGGRTKYADSVKGRFTISRDNAKNTVYLQMNSLKPEDTAVYYCAASYIVWLTRGAPRKRFDYWGQGTQVTVSS	high polyreactivity
QVQLVESAGGLVQAGGSLRLSCAASGSIFYEYAMGWYRQAPGKERELVATITWTDDSTYYADSVKGRFTISRDNAKNTVYLQMNSLKPEDTAVYYCNADLWPGNHDGYWGQGTQVTVSS	low polyreactivity
QVQLVESGGGLVQAGGSLRLSCAASGSTFITNIMGWYRQAPGKERELVAAISYIDGTTYYADSVKGRFTISRDYAKNTVYLQMNSLKADDTAVYYCAAVVSKSSFDYWGQGTQVTVSS	low polyreactivity
QVQLVESGGGLVQAGGSLRLSCAASGSIFLLYAMGWYRQAPGKERELVARISWSGDNTRYADSVKGRFTISRDNAKNTVYLQMNSLKPEDTAVYYCNAYYFYGQWKGYDYWGQGTQVTVSS	low polyreactivity
QVQLVESGVGLVQAGGSLSLSCAASGSTFTRYAMGWYRQAPGKERELVASISRSGNTYYADSVKGRFTISRDNAKNTVYLQMNSLKPEDSAVYYCAAKRKSYYSYNFDYWGQGTQVTVSS	high polyreactivity
QVQLVESGGGLVQAGGSLRLSCAASGRIFGRYAMGWYIQAPGKERELVAAISRSGGITYYADSVKGRFTISRDNAKNTVYLQMNSLKPEDTAVYYCAAYRAGNSYYPRLNYWGQGTQVTVSS	high polyreactivity
QVQLVESGGGLVQAGGSLRLSCAASGIIFGYYAMGWYRQAPGKERELVAAITSGTSTYYADSVKGRFTISRDNAKNTVYLQMNSLKPEDTAVYYCNIVRRYGDEDSWGQGTQVTVSS	high polyreactivity
QVQLVESGGGLVQAGGSLRLSCAASGRTFYYNAMGWSRQAPGKEREFVARITRSGTNTYYADSVKGRFTISRDNAKNTVYLQMNSLKPEDTAVYYCARRGTSSYRRYWLDSASNMDYWGQGTQVTVSS	high polyreactivity
QVQLVESGGGLVQAGGSLRLSCAPSGIISIFNVMGWYRQAPGKERELVASITGRGGSTFYADSVKGRFTISRDNAKNTVYLQMNSLKPEDTAVYYCATDTGYTYPVTGLYDYWGQGTQVTVSS	low polyreactivity
QVQLVESGGGLVQAGGSLRLSCAASGFTFIRNAMGWYRQAPVKERELVAAISKSGGTTYYADSVKGRFTISRDNAKNTVYLQMNSLKPEDTAVYYCNKGIGRSDPDYRYYYWGQGTQVTVSS	high polyreactivity
QVQLVESGGGLVQAGGSLRLSCAASGSTFTWNTMGWYRQAPGKEREMVAAISMRGANTYADSVKGRFTISLDNAKNTVYLEMNSLKPEDTAVYYCARDRLAIMDYNEYITRYEYWGQGTQVTVSS	low polyreactivity
QVHLVESGGGVVQAGGSLRLSCAASGRIFHRYEMGWYRQAPVKERELVAAINWRTGNTYYADSVKGRFTISRDNAKNTVYLQMNSLKAEDTAVYYCNARYRSDYWGIQYDYWGQGTQVTVSS	high polyreactivity
QVQLVESGGGLVQAGGSLRLSCAASGRIFYGYAMGWYRQAPGKERELVAAITSGSRTNYADSVKGRFTISRDNAKNTVYLQMNSLKPEDTAVYDCHSRYGSYLYSLVHNTRYDYWGQGTQVTVSS	low polyreactivity
QVQLVESGGGLVQAGGSLRLSSAPSGIIIDYYAMGWYRQSPGKERELVAAITSGGSTSYADSEKGGFTISRDNAKKTVYLQMNSLKPEDTAVYYCNTEPSGYESGYWGQGTQVTVSS	low polyreactivity

Sequence	polyreactivity (PSR sort gate)
QVQLVESGGGLVQAGGSLRISCAASGSNFAYYAMGWYRQAPGKERELVAAITRGGRTYYADSVKGRFTISRDNAKNTVYLQMNSLKPEDTAVYYCNARNYTWYSSRFMRFDYWGLGTQVTVSS	high polyreactivity
QVQLVESGGGLVQAGGSLRLSCAASGSTFTVNAMGWYRQAPGKERELVAAISYTDSITYYADSVKGRFTISRDNAKNTVYLQMNSLKPEDTAVYYCAVDYTVYFATYSWPYLSTHEYWGQGTQVTVSS	high polyreactivity
QVQLVESGGGLVQAGGSLRLSCSASGSIFVWYDMGWYRQAPGKERELVATISLSGVSTYYADSVKGRFTISRDNAKNTVYLQMNSLKPEDTAVYYCNKDDPVDGPLYFRKYDYWGQGTQVTVSS	low polyreactivity
QVQLVESGGGLVQAGGSLRLSCAASGRIFKYNAMGWYRQAPGKERELVAAISGGGSTNYADSVKGRFTISRDNAKNTVYLQMNSLKPEDTAVYYCAKGYRRVYGPFYYWGQGTQVTVSS	low polyreactivity
QVQLVESGGGLVQAGGSLRLSCAASGFIFISNAMGWYRQAPGKERELVARISDTDRTHYADSVKGRFTISRDNAKNTVYLQMNSLKPEDTAVYYCATDQSLLDKVYYDVQYDYWGQGTQVTVSS	low polyreactivity
QVQLVESGGGLVQAGGSIRLSCAASGYILGRYAMGWYRQAPGKERELVAAITSGGSTYYADSVKGRFTISRDNAKNSVSLQMNSLKPEDTAVYYCAAYTRYWSYGYWGQGTQVTVSS	high polyreactivity
QVQLVESGGGLVQAGGSLRLSCAASGSTFFDYAMGWYRQAPGKERELVAVISDGGTTTYADSVKGRFTISRDNAKNTVYLQMNSLKPEDTAVYYCAAENQDGLLVILGGYGYWGQGTQVTVSS	low polyreactivity
QVQLVESGGGLVQAGGSLRLSCAASGYTFFRNTMGWYRQAPGKERELVAVITKSGGSTYYADSVKGRFTISRDNAKNTVYLQMNSLKPEDTAVYYCNAVNALRNTEYNYWGQGTQVTVSS	high polyreactivity
QVQLVESGGGLVQAGGSLRLICAASGRILPLYAMGWYRQAPGKERELVADITGSDGSTYYADSVKGRFTISRDNAKNTVYLQMNSLKPEDTAVYYCATDAIGRTPSDPWDYYYWGQGTQVTVSS	low polyreactivity
QVPLVESGGGLVQAGGSLRLSWAASGRTFVPYAMGWDSPAPGKDWELVAAISSGGDTNYADSVKGRVTISRDNAKNTVYLQMNSLKPEDTAVSYCAADVKRDRVWGGDYWGQGTQVTVSS	low polyreactivity
QVQLVESGGGLVQAGGSLRLSCAASGSIFDRYAMGWYRQAPGKESELVAAITCGTSTYYADSVKGRFTISRDNAKNTVYLKMNSLKPEDTAVYYCNKGYSSSMDYWGQGTQVTVSS	low polyreactivity
QVQLVESGGGLVQAGGSLRLSCAASGSTFYLYAMGWYRQAPGKERELVASITYSGASTYYADSVKGRFTISRDNAKNTVYLQMNSLKPEDTAVYYCAADQRGWFAVGSQRKYNYWGQGTQVTVSS	low polyreactivity
QVQLVESGGGLVQAGGSLRLSCAASGFTFLINAMGWYRQAPGKERELVAAIRSGGSTNYADSVKGRFTISRDNAKNSVYFQMNSLKPEDTAVYYCAARRYYPYKYRYGYWGQGTQVTVSS	high polyreactivity
QVQLVESGGGLVQAGGSLRLSCAASGSIFFYYAMGWYRQAPGKERELVASISTDGSTYADSVKGRFTISRDNAKNTVYLQMNSLKPEDTAVYYCNADTRGEYTYVSWYDYWGQGTQVTVSS	low polyreactivity
QVQLVESGGGLVQAGGSLRLSCAASGRTLIAYAMGWYRQAPGKEREFVAAIRADDGRTYYADSVKGRFTISRDNAMNTVYLQMNSLKPDDTAVYYCATKADKRYRFGYWGQGTQVTVSS	high polyreactivity
